Results taken from patent publication US20120165211A1, “Human Antibodies Cross-Reacting With A Bacterial And A Self Antigen From Atherosclerotic Plaques” (priority 2007, published 2012).
Entries after “also recorded” stand apart in the source; their conditions may differ.

Experiments:
[1] = test system: antigen present in Proteus mirabilis; assay: Western blot assay on pathogen lysates; assay type: binding; conditions: Fab 10 μg/ml; 8 μg total protein lysate per well
Protocol: (§1) Bacterial cell lysates were carried out inoculating a colony or a scratch in 10 ml of SB and growing bacteria at 37° C. overnight. Cultures of Staphylococcus aureus, Proteus mirabilis, Klebsiella pneumoniae, Enterococcus cloacae, Streptococcus pyogenes, Neisseriae gonhorreae, Listeria monocytogenes were grown. Overnight cultures were harvested by centrifugation (4500 RPM for 10 min.) and then resuspended in 1 ml of RIPA buffer and protease inhibitor PMSF (1 mM final). After three cycles of freeze-and-thawing (37° C. and −80° C.) and one cycle of sonication (90 sec at max power) the lysate was cleared by centrifugation (15000 RPM at 4° C. for 20 min) Moreover one colony of Haemophilus influenzae was seeded on blood agar plates and then grown at 37° C. overnight. Haemophilus inluenzae colonies were collected and resuspended in 500 μl of RIPA/PMSF. All lysates were stored at −20° C. until usage.
(§2) Lysates from Listeria monocitogenes, Streptococcus pyogenes, Staphylococcus aureus, Enterococcus cloacae, Haemophilus influenzae, Proteus mirabilis, Escherichia coli, Klebsiella pneumoniae, were prepared as described in Example II. SDS-PAGE was performed according to standard techniques. Briefly, protein concentration of all lysates was determined by BCA kit (Pierce) according to manufacturer instruction. SDS-PAGE loading buffer was added to protein lysates before heating at 90° C. for 5 min. […]

[2] = test system: antigen present in Klebsiella pneumoniae; assay: Western blot assay on pathogen lysates; assay type: binding; conditions: Fab 10 μg/ml; 8 μg total protein lysate per well
Protocol: as §1, §2

B1: Fab7816: human recombinant Fab from coronary plaque library ID11LIB; heavy chain SEQ ID NO:2, light chain SEQ ID NO:4 (antibody, listed as Homo sapiens, V domains shown)
VH: LESGPGQVKPSQTLSLTCTVSGGSIGSGSYSWNWIRQPAGRGLEWIGRISDSGNTNFNPSLKSRVTMSVDTSKNQFALKLTSVTAADTATYFCARGRGILTGLFDYWGQGSLVSVSSASTKGPSVFPLAPSSKSTSGGTAALGCLVKD
VL: SPDSLAVSPGGRATIKCASSQSVLDNSNHKNSLAWYQQKPGLPPKLLIYWASTRYSGVPDRFSGSGSGTDFTLTINNLQAADVAVYFCQQYYSTPWTFGQGTKVE
binding in Western blot on Proteus mirabilis lysate [1]: binds specifically; also recorded: recognizes with high specificity and affinity | binding in Western blot on Klebsiella pneumoniae lysate [2]: binds specifically; also recorded: recognizes with high specificity and affinity
